From patent US20090220470A1 (CENTRO DE INVESTIGACION COOPERATIVA EN BIOCIENCIAS CIC …, published 2009)
Where no end group is shown, it is not given here.

Tests used:
[1] = target: T1, Mono-ubiquitin (Sigma Aldrich) (UniProt P0CG48 1-76); test: SPR (Biacore), GST fusion captured on anti-GST antibody chip (150-220 RU), mono-ubiquitin injected in a 2-fold dilution series, steady-state fit
Protocol: (§1) (FIG. 4C) Mono-ubiquitin interaction with single and tandem UBA domains from hHR23A and ubiquilin1 was monitored by real-time surface plasmon resonance (SPR).
To measure real-time interactions, all experiments were performed with a BiaCore 3000 instrument, at 25° C., using HBS EP (0.01 B M HEPES pH 7.4, 0.15 M NaCl, 3 mM EDTA, 0.005% surfactant P20) (BiaCore) as running buffer. Anti GST antibody (BiaCore) was covalently immobilized on a CM5 chip (carboxy methylated dextran) from BiaCore with a density of approximately 9000 resonance units (RU≈pg·mm-2), using standard amino-coupling techniques and reagents (NHS, EDC, ethanolamine) from BiaCore. Purified GST-tagged polypeptide comprising ubiquitin binding domains of p62 protein and GST were diluted in running buffer and captured to similar levels in different flow cells. Single and tandem GST-fused UBA domains were captured on the sensor chip at low (30-55 RU) and high (130-220 RU) densities.
All injections were done as randomized duplicates, and each experiment was repeated in triplicate. […] The steady-state responses (Req) were estimated by averaging the signal monitored during the last 15 seconds of each injection.

[2] = target: T1, Mono-ubiquitin (Sigma Aldrich); test: SPR (BiaCore 3000), captured via GST on anti-GST chip, mono-ubiquitin injected, steady state
Description: as §1
All injections were done as randomized duplicates, and each experiment was repeated in triplicate. All the experimental profiles were double referenced using the Scrubber 2.0 software (BioLogic Software), i.e. both the signals from a His6-GST-SV5 reference surface and from blank experiments (running buffer instead of protein) were subtracted. The steady-state responses (Req) were estimated by averaging the signal monitored during the last 15 seconds of each injection. The Req values were plotted against the concentration (C) of mono or tetra-ubiquitin and fitted using the following equation:

Kd [1]: 41.3 µM | binding stoichiometry (molar ratio ubiquitin:UBA) [2]: 1 ubiquitin per UBA
B1: Ubiquilin1 UBA (single UBA domain, GST-fused) (other)
chain: VNPQLQNPEVRFQQQLEQLSAMGFLNREANLQALIATGGDINAAIERLLGSQPS
modifications: not fully specified (C-terminus); also: GST-fused, PreScission protease site and His6 tag, construct limits not given here
notes: not shown: glutathione-S-transferase (GST) encoded by the pGEX-6P1 vector (Amersham); PreScission protease site and His6 tag with vector linker residues
